This is an account of results in patent US20190077860A1 (EISAI R AND D MANAGEMENT, published 2019).

Assay [1] has as its target T1, human EphA4 extracellular region-SEAP-His protein (human, UniProt P54764 20-547).
T1 construct: also called hEphA4-SEAP-His
Nature of the assay: SPR, Ab captured. The protocol: The binding affinity of each anti-EphA4 monoclonal humanized antibody obtained in Example 16 for human EphA4 was determined by surface plasmon resonance (SPR) using Biacore T200 (GE Healthcare). First, for the assay of antibody A, a rat anti-mouse IgG₁ antibody produced with a conventional method by immunizing rat with mouse IgG₁ antibody was immobilized on sensor chip CM5. The immobilization of the rat anti-mouse IgG1 antibody on sensor chip CM5 was performed by the amine coupling method using N-hydroxysuccinimide (NHS) and N-ethyl-N′-(3-dimethylaminopropyl)carbodiimide hydrochloride (EDC). Ethanolamine was used in blocking (the sensor chip and the reagents for immobilization were all manufactured by GE Healthcare). The antibody was diluted with a buffer solution for immobilization (10 mM sodium acetate, pH 4.5) and immobilized on the sensor chip according to the protocol attached to Biacore T200. For the assay of each humanized monoclonal antibody, a protein A chip (GE Healthcare, 29-1383-03) was used. Antibody A or the humanized monoclonal antibody was diluted with a running buffer solution HBS-EP (GE Healthcare), injected onto only flow cell 2 for 120 seconds, and captured (captured amount: approximately 30 to 60 RU). Subsequently, human EphA4 extracellular region-SEAP-His protein serially diluted in the range of 50, 16.7, 5.6, 1.9, and 0.6 nM using HBS-EP was sequentially added from the lower toward higher concentration sides without regeneration operation. Binding reaction curves were sequentially observed at the time of the addition (association phase, for 120 sec) and after the completion of the addition (dissociation phase, for 900 sec). After the completion of each observation, the sensor chip was regenerated by the addition of 3 M MgCl₂ (for 60 sec) or 10 mM Glycine-HCl pH 1.5 (for 30 sec). The obtained binding reaction curves were subjected to fitting analysis with 1:1 binding models using software BIA evaluation attached to the system to calculate the affinity (KD=kd/ka) for human EphA4 (Table 6).

Assay [2] addresses T1, human EphA4 extracellular …. As to the kind of experiment: competition ELISA, competitor human Ephrin A5-Fc. As for the experimental part: Each anti-EphA4 monoclonal humanized antibody obtained in Example 16 was evaluated for its inhibitory activity against the binding between human EphA4 and its human ligand according to the following steps. Each well of a 96-well plate (Nunc) was coated with an anti-alkaline phosphatase antibody (Thermo Fisher Scientific). After incubation overnight at 4° C., each well was blocked with 1% BlockAce (DS Pharma Biomedical) at room temperature for 1 hour. After washing with 0.05% Tween 20/PBS (Thermo Fisher Scientific) three times, the human EphA4 extracellular region-SEAP-His protein obtained by the method of Example 2 was added (final concentration: 10 nM) to each well and incubated at room temperature for 1 hour. After washing three times, a ligand and each serially diluted humanized antibody of antibody A (0, 0.003, 0.01, 0.03, 0.1, 0.3, 1, 3, 10, 30, 100, 300, 1000, and 3000 nM) were added to each well. The ligand used was biotinylated human Ephrin A5-Fc chimera (R&D Systems, final concentration: 0.7 nM). After incubation at room temperature for 1 hour and subsequent washing three times, horseradish peroxidase-labeled streptavidin (GE Healthcare) was added thereto and incubated at room temperature for 1 hour. After washing three times, a TMBZ (3,3′,5,5′-tetramethylbenzidine, Sigma-Aldrich) solution was added to each well and incubated at room temperature for 2 minutes. An equal amount of a reaction stopping solution (1N H₂SO₄, Wako Pure Chemical Industries) was added to each well. The absorbance at 450 nm was read using a microplate reader (PerkinElmer).
(In general: An ELISA detects its analyte on a solid surface through an enzyme-linked reagent.)

The target in assay [3] is T2, human EphB1 extracellular region-SEAP-His protein (human, UniProt P54762 18-540).
T2 construct: extracellular domain; also called hEphB1-SEAP-His
T2 sequence (looked up): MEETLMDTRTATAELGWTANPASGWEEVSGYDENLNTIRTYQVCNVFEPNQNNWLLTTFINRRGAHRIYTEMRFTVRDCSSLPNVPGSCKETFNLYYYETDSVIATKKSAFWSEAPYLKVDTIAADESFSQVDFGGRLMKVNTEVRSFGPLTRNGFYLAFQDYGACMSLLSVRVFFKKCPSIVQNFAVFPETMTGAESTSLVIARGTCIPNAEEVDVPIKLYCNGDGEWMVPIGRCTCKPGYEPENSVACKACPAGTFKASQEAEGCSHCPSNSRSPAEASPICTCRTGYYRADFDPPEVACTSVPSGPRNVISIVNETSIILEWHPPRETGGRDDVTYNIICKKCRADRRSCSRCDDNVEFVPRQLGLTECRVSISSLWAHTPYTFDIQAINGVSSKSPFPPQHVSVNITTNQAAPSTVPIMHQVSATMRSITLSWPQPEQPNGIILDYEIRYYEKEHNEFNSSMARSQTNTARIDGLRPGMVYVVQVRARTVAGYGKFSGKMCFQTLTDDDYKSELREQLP
Nature of the assay: ELISA. As for the experimental part:
Each well of a 96-well plate (Nunc) was coated with a rabbit anti-6-His antibody (Bethyl Laboratories). Each well was […] After washing with 0.05% Tween 20/PBS (Nacalai Tesque) three times, the SEAP-His protein of human EphA1, EphA2, EphA3, EphA4, EphA5, EphA6, EphA7, EphA8, EphA10, EphB1, EphB2, EphB3, EphB4, or EphB6 was added (final concentration: 1 nM) to each well and incubated at room temperature for 1 hour. After washing three times, the humanized antibody was added to each well and incubated at room temperature for 1 hour. After washing three times, a horseradish peroxidase-labeled donkey […] antibody (Jackson ImmunoResearch Laboratories) was added thereto and incubated at room temperature for 1 hour. After washing three times, TMB Microwell Peroxidase Substrate System (Kirkegaard & Perry Laboratories (KPL)) was added to each well. After confirmation of moderate color development, an equal amount of a reaction stopping solution (1N H₂SO₄, Wako Pure Chemical Industries) was added to each well. The absorbance at 450 nm was read using a microplate reader (Thermo Fisher Scientific).

T1 sequence (P54764 20-547): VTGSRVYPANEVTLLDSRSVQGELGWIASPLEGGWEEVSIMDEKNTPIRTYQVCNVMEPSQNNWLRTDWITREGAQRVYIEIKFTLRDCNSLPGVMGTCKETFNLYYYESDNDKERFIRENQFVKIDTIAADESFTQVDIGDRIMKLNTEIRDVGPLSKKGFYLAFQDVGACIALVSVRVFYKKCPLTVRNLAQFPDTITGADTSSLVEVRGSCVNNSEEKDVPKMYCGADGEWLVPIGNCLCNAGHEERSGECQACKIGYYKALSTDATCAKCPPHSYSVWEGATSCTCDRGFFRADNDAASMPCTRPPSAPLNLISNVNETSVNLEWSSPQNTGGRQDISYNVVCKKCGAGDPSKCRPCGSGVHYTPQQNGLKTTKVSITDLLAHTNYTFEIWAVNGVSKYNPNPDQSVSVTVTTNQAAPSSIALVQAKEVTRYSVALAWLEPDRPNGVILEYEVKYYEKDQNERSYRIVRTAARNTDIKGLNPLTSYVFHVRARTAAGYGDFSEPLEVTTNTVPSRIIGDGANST

B1: humanized antibody No. 91 (antibody, human IgG1, kappa)
heavy: QVQLVQSGSELKKPGASVKVSCKASGYTFTDYSMHWVRQAPGQGLKWMGWINTETGEPTYADDFKGRFVFSLDTSVSTAYLQISSLKAEDTAVYYCARIPLYYYGSRYWYFDVWGQGTTVTVSSASTKGPSVFPLAPSSKSTSGGTAALGCLVKDYFPEPVTVSWNSGALTSGVHTFPAVLQSSGLYSLSSVVTVPSSSLGTQTYICNVNHKPSNTKVDKRVEPKSCDKTHTCPPCPAPPAAAPSVFLFPPKPKDTLMISRTPEVTCVVVDVSHEDPEVQFNWYVDGVEVHNAKTKPREEQFNSTFRVVSVLTVVHQDWLNGKEYKCKVSNKGLPAPIEKTISKTKGQPREPQVYTLPPSREEMTKNQVSLTCLVKGFYPSDIAVEWESNGQPENNYKTTPPMLDSDGSFFLYSKLTVDKSRWQQGNVFSCSVMHEALHNHYTQKSLSLSPG
light: DIQMTQSPSSLSASVGDRVTITCRASENIYRNLAWYQQKPGKAPQLLLYAATNLADGVPSRFSGSGSGTDYTLTISSLQPEDFATYYCQHFWGTPWTFGQGTKVEIKRTVAAPSVFIFPPSDEQLKSGTASVVCLLNNFYPREAKVQWKVDNALQSGNSQESVTEQDSKDSTYSLSSTLTLSKADYEKHKVYACEVTHQGLSSPVTKSFNRGEC
notes: human Ig kappa; also called L1-6/HK2
As a reminder, the Kd is the free concentration of one partner at which half of the binding sites on the other are occupied at equilibrium, for simple one-to-one binding. A lower Kd goes with higher affinity. The koff is the rate constant with which the complex falls apart. In general, kon refers to the rate constant with which the complex forms. In general, IC50 refers to the point on the concentration scale where inhibition reaches its midpoint. Higher therefore signals weaker potency in that assay. In assay [1], B1 gave a dissociation constant Kd of 1.3 nM, a koff of 0.00044 s⁻¹ and a kon of 330000 M⁻¹ s⁻¹. Moreover, the 50% inhibitory concentration (IC50) in assay [2] is 4.9 nM. Also, the “A450 as % of hEphA4-SEAP-His” value in assay [3] was found to be 6.6%.

B2: humanized antibody No. 140 (antibody, human IgG2)
heavy: QVQLVQSGSELKKPGASVKVSCKASGYTFTDYSMHWVRQAPGQGLKWMGWINTETGEPTYAQGFTGRFVFSLDTSVSTAYLQISSLKAEDTAVYYCARIPLYYYGSRYWYFDVWGQGTTVTVSSASTKGPSVFPLAPSSRSTSESTAALGCLVKDYFPEPVTVSWNSGALTSGVHTFPAVLQSSGLYSLSSVVTVPSSNFGTQTYTCNVDHKPSNTKVDKTVERKSCVECPPCPAPPAAAPSVFLFPPKPKDTLMISRTPEVTCVVVDVSHEDPEVQFNWYVDGVEVHNAKTKPREEQFNSTFRVVSVLTVVHQDWLNGKEYKCKVSNKGLPAPIEKTISKTKGQPREPQVYTLPPSREEMTKNQVSLTCLVKGFYPSDIAVEWESNGQPENNYKTTPPMLDSDGSFFLYSKLTVDKSRWQQGNVFSCSVMHEALHNHYTQKSLSLSPG
light: DIQMTQSPSSLSASVGDRVTITCRASENIYRNLAWYQQKPGKAPKLLVYAATNLADGVPSRFSGSGSGTDYTLTISSLQPEDFATYYCQHFWGTPWTFGQGTKVEIKRTVAAPSVFIFPPSDEQLKSGTASVVCLLNNFYPREAKVQWKVDNALQSGNSQESVTEQDSKDSTYSLSSTLTLSKADYEKHKVYACEVTHQGLSSPVTKSFNRGEC
notes: human Ig kappa; also called L1-4/HA2
In assay [1], B2 came in with a Kd of 1.4 nM, a koff of 0.00043 s⁻¹ and a kon of 320000 M⁻¹ s⁻¹. Moreover, the IC50 in assay [2] came to 2.4 nM. Also, the “A450 as % of hEphA4-SEAP-His” value in assay [3] stood at 5.3%.

B3: humanized antibody No. 92 (antibody, human IgG1, kappa)
heavy: QIQLVQSGSELKKPGASVKVSCKASGYTFTDYSMHWVRQAPGQGLKWMGWINTETGEPTYADDFKGRFVFSLDTSVSTAYLQISSLKAEDTAVYYCARIPLYYYGSRYWYFDVWGQGTTVTVSSASTKGPSVFPLAPSSKSTSGGTAALGCLVKDYFPEPVTVSWNSGALTSGVHTFPAVLQSSGLYSLSSVVTVPSSSLGTQTYICNVNHKPSNTKVDKRVEPKSCDKTHTCPPCPAPPAAAPSVFLFPPKPKDTLMISRTPEVTCVVVDVSHEDPEVQFNWYVDGVEVHNAKTKPREEQFNSTFRVVSVLTVVHQDWLNGKEYKCKVSNKGLPAPIEKTISKTKGQPREPQVYTLPPSREEMTKNQVSLTCLVKGFYPSDIAVEWESNGQPENNYKTTPPMLDSDGSFFLYSKLTVDKSRWQQGNVFSCSVMHEALHNHYTQKSLSLSPG
light: DIQMTQSPSSLSASVGDRVTITCRASENIYRNLAWYQQKPGKAPQLLLYAATNLADGVPSRFSGSGSGTDYTLTISSLQPEDFATYYCQHFWGTPWTFGQGTKVEIKRTVAAPSVFIFPPSDEQLKSGTASVVCLLNNFYPREAKVQWKVDNALQSGNSQESVTEQDSKDSTYSLSSTLTLSKADYEKHKVYACEVTHQGLSSPVTKSFNRGEC
notes: human Ig kappa; also called L1-6/HK4
Turning to B3, in assay [1], the Kd is 1.3 nM, the koff was found to be 0.00043 s⁻¹ and the kon came to 330000 M⁻¹ s⁻¹. Further, in assay [2], the IC50 stood at 3.5 nM. For the same molecule, the “A450 as % of hEphA4-SEAP-His” value in assay [3] stood at 6.9%.

B4: humanized antibody No. 138 (antibody, human IgG2)
heavy: QIQLVQSGSELKKPGASVKVSCKASGYTFTDYSMHWVRQAPGQGLKWMGWINTETGEPTYAQGFTGRFVFSLDTSVSTAYLQISSLKAEDTAVYYCARIPLYYYGSRYWYFDVWGQGTTVTVSSASTKGPSVFPLAPSSRSTSESTAALGCLVKDYFPEPVTVSWNSGALTSGVHTFPAVLQSSGLYSLSSVVTVPSSNFGTQTYTCNVDHKPSNTKVDKTVERKSCVECPPCPAPPAAAPSVFLFPPKPKDTLMISRTPEVTCVVVDVSHEDPEVQFNWYVDGVEVHNAKTKPREEQFNSTFRVVSVLTVVHQDWLNGKEYKCKVSNKGLPAPIEKTISKTKGQPREPQVYTLPPSREEMTKNQVSLTCLVKGFYPSDIAVEWESNGQPENNYKTTPPMLDSDGSFFLYSKLTVDKSRWQQGNVFSCSVMHEALHNHYTQKSLSLSPG
light: DIQMTQSPSSLSASVGDRVTITCRASENIYRNLAWYQQKPGKAPKLLVYAATNLADGVPSRFSGSGSGTDYTLTISSLQPEDFATYYCQHFWGTPWTFGQGTKVEIKRTVAAPSVFIFPPSDEQLKSGTASVVCLLNNFYPREAKVQWKVDNALQSGNSQESVTEQDSKDSTYSLSSTLTLSKADYEKHKVYACEVTHQGLSSPVTKSFNRGEC
notes: human Ig kappa; also called L1-4/HA4
B4: in assay [1], the affinity, expressed as Kd, was 1.3 nM; the koff worked out at 0.00043 s⁻¹; the kon came out at 330000 M⁻¹ s⁻¹. Further, in assay [2], the half-inhibitory concentration (IC50) was determined as 2.9 nM. In addition, in assay [3], the “A450 as % of hEphA4-SEAP-His” value came to 5.1%.
